Measurements reported in paper PMC8486122 (2021).

Biological target: RTX751 (ACT residues 751–1706) (Bordetella pertussis, UniProt P0DKX7 751-1706)
Experiment: SPR

Chain of RTX751 (ACT residues 751–1706) (P0DKX7 751-1706): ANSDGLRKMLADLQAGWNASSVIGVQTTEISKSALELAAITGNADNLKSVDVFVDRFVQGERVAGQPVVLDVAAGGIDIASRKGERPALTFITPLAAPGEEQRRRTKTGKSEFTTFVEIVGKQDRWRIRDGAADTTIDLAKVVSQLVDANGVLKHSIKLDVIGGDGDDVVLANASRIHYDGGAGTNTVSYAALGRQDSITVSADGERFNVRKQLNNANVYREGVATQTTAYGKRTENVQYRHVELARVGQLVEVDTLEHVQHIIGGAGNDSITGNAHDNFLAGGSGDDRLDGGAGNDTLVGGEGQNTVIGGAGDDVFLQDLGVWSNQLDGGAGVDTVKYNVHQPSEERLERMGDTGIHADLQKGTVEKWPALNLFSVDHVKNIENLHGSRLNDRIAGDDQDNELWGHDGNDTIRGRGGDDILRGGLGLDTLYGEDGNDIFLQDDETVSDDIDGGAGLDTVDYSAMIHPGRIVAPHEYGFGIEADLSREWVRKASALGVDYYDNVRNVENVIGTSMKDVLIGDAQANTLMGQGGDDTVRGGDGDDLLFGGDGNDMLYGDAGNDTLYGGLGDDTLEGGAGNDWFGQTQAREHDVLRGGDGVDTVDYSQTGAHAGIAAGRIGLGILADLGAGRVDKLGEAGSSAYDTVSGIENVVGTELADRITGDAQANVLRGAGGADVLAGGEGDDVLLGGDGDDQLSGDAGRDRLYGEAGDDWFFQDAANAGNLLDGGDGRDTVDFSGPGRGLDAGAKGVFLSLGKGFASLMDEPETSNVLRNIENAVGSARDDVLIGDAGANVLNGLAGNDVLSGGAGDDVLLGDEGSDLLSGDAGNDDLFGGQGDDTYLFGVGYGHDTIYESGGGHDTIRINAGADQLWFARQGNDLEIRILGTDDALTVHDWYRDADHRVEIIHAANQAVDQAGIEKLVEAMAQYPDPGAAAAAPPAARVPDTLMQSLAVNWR

B1: M2B10 Fab (Fab, V domains shown)
VH: EVQLQQSGAELVRPGTSVKVSCKASGYAFTNYLIEWVKQRPGQGLEWIGVINPGIGNTNYNEKFKGKATLTADKSSSTVYMQLSSLTSDDSAVYFCARGLNYGSSQHWYFDVWGAGTSVTVSS
VL: IVMTQSPAILSASLGERVTMTCTASSSVSSSYLHWYQQKPGSSPKLWIYSTSNLASGVPARFSGSGSGTSYSLTISSMEAEDAATYYCHQYHRSPPTFGAGTKLEIK
koff: 0.00121 s⁻¹

B2: M1H5 Fab (Fab, V domains shown)
VH: EVNLVESGGDLVKPGGSLKLSCAASGFTFSSYGMSWVRQTPDKRLEWVATISSGGTYTYYPDSVKGRFTISRDNAKNTLYLQMSSLKSEDTAMYYCAREIMRGGGYYFDYWSQGTTLTVSS
VL: DIQMIQSTSSLSASLGDRVTISCRASQDISNYLNWYQQKPDGTVKLLIYYTSRLHSGVPSRFSGSGSGTDYSLTISNLEQEDIATYFCQQGNTLPYTFGGGTKLEIK
koff: 0.00102 s⁻¹
